Measurements taken from patent US7927864B2, “Methods, kits, and compositions for detecting enzyme activity” (Wake Forest University Health Sciences, priority 2006, dated 2011).

Assays:
ADAMTS13 [1] = target: T1, ADAMTS13 (Homo sapiens, UniProt Q76LX8); experiment: FRET measurement of ADAMTS13 cleavage of fluorescein-labeled recombinant VWF73 peptide in plasma; format: biochemical; details: incubation with pooled normal plasma (PNP) as source of ADAMTS13; peptide 4.5 μM working solution, plasma diluted 1 in 8, pH 6.0
T1 construct: Pooled Normal Plasma (PNP) was used as a source of ADAMTS13; from tissue; host or cells: pooled normal plasma (PNP); the substrate peptide was made in M15 E. coli
T1 sequence (Q76LX8 75-1427): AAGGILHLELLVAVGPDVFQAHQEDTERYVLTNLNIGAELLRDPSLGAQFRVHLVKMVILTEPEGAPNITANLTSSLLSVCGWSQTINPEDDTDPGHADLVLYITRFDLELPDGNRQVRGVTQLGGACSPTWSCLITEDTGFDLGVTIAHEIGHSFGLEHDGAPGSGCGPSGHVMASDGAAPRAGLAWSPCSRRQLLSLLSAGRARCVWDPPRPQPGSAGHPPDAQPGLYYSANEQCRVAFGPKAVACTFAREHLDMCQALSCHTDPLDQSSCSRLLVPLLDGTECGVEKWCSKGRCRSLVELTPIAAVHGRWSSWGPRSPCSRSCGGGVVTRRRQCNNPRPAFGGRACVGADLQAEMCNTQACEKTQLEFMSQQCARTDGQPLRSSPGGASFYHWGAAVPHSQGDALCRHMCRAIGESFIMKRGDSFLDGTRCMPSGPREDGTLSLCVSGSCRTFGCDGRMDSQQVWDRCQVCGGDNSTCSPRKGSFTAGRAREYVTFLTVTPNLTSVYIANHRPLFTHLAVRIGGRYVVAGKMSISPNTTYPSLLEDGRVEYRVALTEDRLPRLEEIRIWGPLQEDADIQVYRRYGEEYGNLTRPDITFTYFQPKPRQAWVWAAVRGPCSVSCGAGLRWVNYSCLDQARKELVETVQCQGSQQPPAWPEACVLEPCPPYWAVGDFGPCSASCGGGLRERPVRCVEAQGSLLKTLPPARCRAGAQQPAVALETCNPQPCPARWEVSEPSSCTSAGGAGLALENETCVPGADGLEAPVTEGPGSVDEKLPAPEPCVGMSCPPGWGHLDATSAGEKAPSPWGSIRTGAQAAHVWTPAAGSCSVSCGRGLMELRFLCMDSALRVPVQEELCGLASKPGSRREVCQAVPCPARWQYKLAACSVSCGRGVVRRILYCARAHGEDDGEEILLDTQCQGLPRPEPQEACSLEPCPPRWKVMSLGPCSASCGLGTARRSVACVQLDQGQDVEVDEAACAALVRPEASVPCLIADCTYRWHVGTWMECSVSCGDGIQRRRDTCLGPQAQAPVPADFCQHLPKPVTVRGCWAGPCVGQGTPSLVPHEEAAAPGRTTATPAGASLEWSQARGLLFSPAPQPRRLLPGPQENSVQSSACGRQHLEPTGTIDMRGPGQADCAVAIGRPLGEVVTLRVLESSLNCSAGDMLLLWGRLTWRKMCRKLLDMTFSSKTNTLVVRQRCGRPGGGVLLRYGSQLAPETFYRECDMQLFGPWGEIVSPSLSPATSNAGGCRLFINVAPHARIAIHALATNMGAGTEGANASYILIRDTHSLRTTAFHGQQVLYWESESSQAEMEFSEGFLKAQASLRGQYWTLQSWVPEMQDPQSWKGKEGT
Protocol: (§1) The working peptide was prepared by dissolving the peptide pellets in DMSO and then diluted with assay buffer, 5 mM Bis-Tris, 25 mM CaCl2, 0.005% Tween 20 at pH 6.0 to a final concentration of 4.5 μM. Pooled Normal Plasma (PNP) was used as a source of ADAMTS13. Heat inactivated PNP, heated overnight at 56° C., and known ADAMTS13-deficient patient plasma were used as negative controls. All samples were diluted 1 in 8 with assay buffer to reduce the ionic strength. Reactions were carried out in 96 well plates using 100 μL of dilute plasma and 100 μL of working peptide solution. The rate of fluorescence increase with time was monitored by a fluorometer.
(§2) FIG. 2 depicts fluorescence of the recombinant peptide during incubation. […] Each experiment was performed in triplicate and mean values are shown. Thus, it is apparent that the fluorescence increase resulting from the separation of fluors by ADAMTS13 cleavage of a labeled peptide substrate is measurable and can be used for FRET based enzyme assays.
(§3) FIG. 3 depicts the rates of change of fluorescence produced by dilutions of PNP in heat inactivated PNP. Undiluted PNP represents 100% ADAMTS13 enzyme activity for purposes of determining quantitative enzyme activity. Each point represents the mean±SEM of triplicate determination. Thus, it is apparent that recombinant fluorescein labeled peptides can be used as effective substrates in quantitative FRET based assays of ADAMTS13. Further techniques for quantitative analysis of enzyme activity are well known to skilled artisans.

ADAMTS13 [2] = experiment: as above; format: biochemical
Protocol: as §1, §2, §3

B1: recombinant peptide: Recombinant His-tagged 73 amino acid VWF A2 peptide (SEQ ID NO: 1); Q1599 and P1611 mutated to cysteines, both labeled with fluorescein (conjugate)
chain: DRECAPNLVYMVTGNCASDEIKRLPGDIQVVPIGVGPNANVQELERIGWPNAPILIQDFETLPREAPDLVLQR
modifications: fluorescein labels on cysteines; His-tag; This is a 73 amino acid fragment of native von Willebrand factor, substituted with cysteines at positions 4 and 16.
notes: Q1599 and P1611 mutated to cysteines, both labeled with fluorescein
**Q.** With B1 as the molecule, how does the “fluorescence of the recombinant peptide during incubation” value (“fluorescence” for short) (ADAMTS13 [1]) read?
**A.** Its value is “steady increase of fluorescence over time”.

**Q.** What about the “fluorescence” value (ADAMTS13 [2]; incubation with heat inactivated PNP (negative control)) of the same molecule?
**A.** The value was “only minimal change in fluorescence”.

**Q.** What about the “fluorescence” value (ADAMTS13 [2]; incubation with plasma samples from TTP patients with no ADAMTS13 activity (negative control)) of the same molecule?
**A.** The value was “only minimal change in fluorescence”.
